Measurements reported in patent US20210270842A1 (DYAX, published 2021).
Residue numbers refer to the chain shown, from its start.

T1: intact high molecular weight kininogen (HMWK) (Homo sapiens, UniProt P01042 19-644)
T1 construct: also called intact HMWK; 1-chain HMWK
T1 sequence: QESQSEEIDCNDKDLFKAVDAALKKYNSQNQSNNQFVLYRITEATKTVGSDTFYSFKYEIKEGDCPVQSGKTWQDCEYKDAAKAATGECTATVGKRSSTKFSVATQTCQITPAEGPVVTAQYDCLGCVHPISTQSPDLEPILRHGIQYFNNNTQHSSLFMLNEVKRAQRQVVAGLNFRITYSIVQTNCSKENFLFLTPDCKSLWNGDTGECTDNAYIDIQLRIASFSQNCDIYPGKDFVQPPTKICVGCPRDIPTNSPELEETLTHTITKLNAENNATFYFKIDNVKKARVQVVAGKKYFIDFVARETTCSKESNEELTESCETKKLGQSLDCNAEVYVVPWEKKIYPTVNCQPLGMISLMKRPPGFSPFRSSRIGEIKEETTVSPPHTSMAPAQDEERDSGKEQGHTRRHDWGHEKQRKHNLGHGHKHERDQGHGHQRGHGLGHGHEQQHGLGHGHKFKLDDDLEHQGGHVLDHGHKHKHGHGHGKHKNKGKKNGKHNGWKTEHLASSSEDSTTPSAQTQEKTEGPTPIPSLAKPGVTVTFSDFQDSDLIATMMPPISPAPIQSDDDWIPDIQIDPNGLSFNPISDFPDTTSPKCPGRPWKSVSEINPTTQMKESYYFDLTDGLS

B1: 559B-M0064-H02 (Fab, V domains shown)
VH: EVQLLESGGGLVQPGGSLRLSCAASGFTFSQYIMGWVRQAPGKGLEWVSSIGSSGVTVYADSVKGRFTISRDNSKNTLYLQMNSLRAEDTAVYYCARGGGVTVLHAFDIWGQGTMVTVSS
VL: QSALTQPASVSGSPGQSITISCTGTSSDVGGYNYVSWYQQHPGKVPKLIIYEGNKRPSGVPDRFSGSKAGNTASLTVSGLQAEDEADYYCTAYGGHSRFYVFGTGTKVTVLG
notes: Purified recombinant Fab; …GQPKANP)
B2: 559B-M0070-H10 (Fab, V domains shown)
VH: EVQLLESGGGLVQPGGSLRLSCAASGFTFSTYGMRWVRQAPGKGLEWVSVISPSGGKTNYADSVKGRFTISRDNSKNTLYLQMNSLRAEDTAVYYCARGRPDYYAMDVWGQGTTVTVSS
VL: QSALTQPPSASGAPGQRVTISCSGSSSNIGSNTVNWYQKLPGTAPKLLIYYNDRRPSGVPDRFSGSKSGNTASLTISGLQAEDEADYYCAAWDDSLSGPVFGGGTKLTVL
notes: also called M070-H10
B3: 559B-M0043-C06 (Fab, V domains shown)
VH: EVQLLESGGGLVQPGGSLRLSCAASGFTFSAYAMRWVRQAPGKGLEWVSYISSSGGETMYADSVKGRFTISRDNSKNTLYLQMNSLRAEDTAVYYCANGYGRIDYWGQGTLVTVSS
VL: QSVLTQPASVSGSPGQSITISCTGTSSDIGGYNYVSWYQQHPGKAPKLMIYEVSNRPSGVSNRFSGSKSGNTASLTISGLQAEDEADYYCSSYTSGSTRVFGTGTRVTVL
B4: 559B-M0035-F05 (Fab, V domains shown)
VH: EVQLLESGGGLVQPGGSLRLSCAASGFTFSHYPMAWVRQAPGKGLEWVSGIVSSGGRTVYADSVKGRFTISRDNSKNTLYLQMNSLRAEDTAVYYCARDPYDFWSEGAFDIWGQGTMVTVSS
VL: QSVLTQPPSASGTPGQRVTISCSGSSSNIGNNFVYWYHQVPGTAPKLLIYKNNQRPSGVPDRFSGSKSAASASLAISGLRSEDEADYYCAAWDNSLSGFYVFGAGTKVTVL
B5: 559B-M0068-D01 (Fab, V domains shown)
VH: EVQLLESGGGLVQPGGSLRLSCAASGFTFSIYPMSWVRQAPGKGLEWVSGISPSGGKTAYADSVKGRFTISRDNSKNTLYLQMNSLRAEDTAVYYCARGQGRAVRGKLYYYGMDVWGQGTTVTVSS
VL: QSALTQPPSASQTPGQTVTISCSGSSSNIGTNNVNWYQQLPGTAPKLLISSHHRRPSGVPDRFSASKSGTSASLAISGLQSEDEADYYCAAWDDSLNGPVFGGGTKLTVL
B6: 559B-M0035-H09 (Fab, V domains shown)
VH: EVQLLESGGGLVQPGGSLRLSCAASGFTFSWYGMHWVRQAPGKGLEWVSRIGPSGGPTSYADSVKGRFTISRDNSKNTLYLQMNSLRAEDTAVYYCARGYYGTGRYFQHWGQGTLVTVSS
VL: DIQMTQSPDSLSLSPGDRATLSCRASQSVGSDYLAWYQQKPGQAPRLLIYDASNRATGIPARFSGSGSGTDFTLTISSLEPEDFAVYYCQQRSNWPPTFGGGTKVEIK
B7: 559B-M0004-E08 (Fab, V domains shown)
VH: EVQLLESGGGLVQPGGSLRLSCAASGFTFSMYHMNWVRQAPGKGLEWVSSIYSSGGSTRYADSVKGRFTISRDNSKNTLYLQMNSLRAEDTAVYYCARGVRYGMDVWGQGTTVTVSS
VL: DIQMTQSPSSVSASVGDRVTITCRASQGISSWLAWYQQKPGKAPKLLIYAASSLQSGVPSRFSGSGSGTDFTLTISSLQPEDFATYYCQQANSFPITFGQGTRLEIK
B8: 559B-M0054-B11 (Fab, V domains shown)
VH: EVQLLESGGGLVQPGGSLRLSCAASGFTFSYYGMNWVRQAPGKGLEWVSVISPSGGLTVYADSVKGRFTISRDNSKNTLYLQMNSLRAEDTAMYYCATGFAVQHGGGAFDIWGQGTMVTVSS
VL: DIQMTQSPATLSMSPGERATLSCRASQSVTTYLAWYQQKPGQAPRLLIYDASIRATGVPARFSGSGSGTDFTLTISRLEPEDFAVYYCQQRTIWPLTFGGGTKVEIK
B9: 559B-M0039-G07 (Fab, V domains shown)
VH: EVQLLESGGGLVQPGGSLRLSCAASGFTFSRYRMRWVRQAPGKGLEWVSGISPSGGWTYYADSVKGRFTISRDNSKNTLYLQMNSLRAEDTAVYYCTTDNGDYALAHWGQGTLVTVSS
VL: DIQMTQSPSSLSASVGDRVTITCRASQRIINYLNWYQQKPGKAPKLLIYAASSLQSGVPSRFSGSGSGTDFTLTISSLQPEDFATYYCQQSYSAPLTFGGGTRVEIK
B10: 559B-M0003-A08 (Fab, V domains shown)
VH: EVQLLESGGGLVQPGGSLRLSCAASGFTFSAYVMRWVRQAPGKGLEWVSSIGSSGGPTYYADSVKGRFTISRDNSKNTLYLQMNSLRAEDTAVYYCARRGGSGSSHAFDIWGQGTMVTVSS
VL: B9 VL with R28S, I30S, N31S, F83S, A84G, S91Y, Y92N, A94F, R103K
B11: 559B-M0067-G11 (Fab, V domains shown)
VH: EVQLLESGGGLVQPGGSLRLSCAASGFTFSPYEMVWVRQAPGKGLEWVSSIVPSGGWTVYADSVKGRFTISRDNSKNTLYLQMNSLRAEDTAVYYCASPSGRGLAFDIWGQGTMVTVSS
VL: DIQMTQSPGTLSLSPGERATLSCRASQSISSSYLAWYQQKPGQAPRLLIYGASSRATGVPDRFSGSGSGTEFTLTISSLQPEDFATYYCLQQKSYPYTFGQGTKVEIK
B12: 559B-M0069-C09 (Fab, V domains shown)
VH: EVQLLESGGGLVQPGGSLRLSCAASGFTFSMYDMHWVRQAPGKGLEWVSSISSSGGYTQYADSVKGRFTISRDNSKNTLYLQMNSLRAEDTAMYYCARDRGLIAAAGGFDPWGQGTLVTVSS
VL: DIQMTQSPSSLSASVGDRVTITCRASQSIGIYLNWYQQKPGTAPKLLIYAASSLQSGVPSRFTGSGSGTDFTLTISSLQPDDFATYYCQRTYGRPLTFGGGTKVEIK
B13: 559B-M0065-B10 (Fab, V domains shown)
VH: EVQLLESGGGLVQPGGSLRLSCAASGFTFSKYFMTWVRQAPGKGLEWVSWISSSGGYTNYADSVKGRFTISRDNSKNTLYLQMNSLRAEDTAVYYCARGAYYYDAFDIWGQGTMVTVSS
VL: DIQMTQSPSSLSASVGDRVTITCRASQSIAIFLNWYQQTPGKPPKLLIYGASTLQSGVPSRFSGSGSGADFTLTISNLQLEDFTTYYCQQSYSTLYTFGQGTKLEIK

biological target: T1, intact high molecular weight kininogen …; assay: Fab passively immobilized on 384-well plate, biotinylated antigen, streptavidin-HRP
Text: A: plots the ratio of the result of a 2-chain HWMK binding assay to a LMWK binding assay on the y-axis compared to the ratio of the result of a 2-chain HMWK binding assay to a 1-chain HMWK binding assay on the x-axis for each antibody (Fab) tested. Recombinant Fab fragments were passively immobilized onto 384-well plates prior to addition of biotinylated 2-chain HMWK, 1-chain HMWK, or LMWK, followed by streptavidin-HRP.
The depleted library was then contacted with biotinylated 2-chain HMWK immobilized on streptavidin coated magnetic beads. The beads were extensively washed with PBS buffer and used to infect E. coli for phage output amplification to complete a round of selection. Three rounds of selection were performed prior to screening individual phage colonies by ELISA with biotinylated 1-chain and 2-chain HMWK immobilized on streptavidin coated plates followed by detection with horse radish peroxidase (HRP) conjugated anti-M13 antibody and absorbance detection due to substrate hydrolysis for 3,3′,5,5′-Tetramethylbenzidine (TMB). […] The specificity of each purified Fab was determined by coating 384 well plates and measuring binding to biotinylated 1-chain HMWK, to biotinylated 2-chain HMWK, or to biotinylated LMWK, followed by detection with streptavidin conjugated to HRP and TMB detection.

Row | Binder | binding result
1 | B1 | binds
2 | B2 | binds

biological target: T1, intact high molecular weight kininogen …; assay: ELISA: Fab coated on 96-well plate, LowCross block, biotinylated antigen, streptavidin-HRP; signal over uncoated well
Description: Thirty-six purified Fab clones (see Table 2 below) were assessed for binding to cleaved HWMK, intact HMWK, and LWMK using the immunoassay described in Example 1. Specifically, each of the purified Fab clones was immobilized on 96-well assay plates at a concentration of […]) in a total volume of 100 μL in PBS and incubated overnight at 2-8° C. The assay plates were blocked using LowCross blocking buffer. Biotinylated intact HMWK, biotinylated cleaved HMWK or biotinylated LMWK ([…]) was added to each well in a total volume of 100 μL and incubated for 2 hours prior to washing with a wash buffer. HRP-labeled streptavidin was added to each well at a concentration of 100 ng/mL, and the signal was developed using Ultra TMB Substrate. The signal to noise ratio was calculated using the signal observed upon the addition of the biotinylated protein to an uncoated well. (FIG. 2, panels A and B). Based on the ELISA results, the antibodies can be divided among 5 categories (Table 2).

Row | Binder | binding result
3 | B3 | binds
4 | B4 | binds
5 | B5 | binds
6 | B6 | binds
7 | B7 | binds
8 | B8 | binds
9 | B9 | binds
10 | B10 | binds
11 | B11 | binds
12 | B12 | binds
13 | B13 | binds
